{"source": "paper PMC3534050", "about": "“Simultaneous Single-Sample Determination of NMNAT Isozyme Activities in Mouse Tissues” (PLoS ONE, 2012)", "proteins": {"B1": {"name": "mNMNAT1 (Mus musculus) (protein)", "chain": "MDSSKKTEVVLLACGSFNPITNMHLRLFELAKDYMHATGKYSVIKGIISPVGDAYKKKGLIPAHHRIIMAELATKNSHWVEVDTWESLQKEWVETVKVLRYHQEKLATGSCSYPQSSPALEKPGRKRKWADQKQDSSPQKPQEPKPTGVPKVKLLCGADLLESFSVPNLWKMEDITQIVANFGLICITRAGSDAQKFIYESDVLWRHQSNIHLVNEWITNDISSTKIRRALRRGQSIRYLVPDLVQEYIEKHELYNTESEGRNAGVTLAPLQRNAAEAKHNHSTL", "notes": "predicted mass 34518 Da"}, "B2": {"name": "mNMNAT2 (Mus musculus) (protein)", "chain": "MTETTKTHVILLACGSFNPITKGHIQMFERARDYLHKTGRFIVIGGIVSPVHDSYGKQGLVSSRHRLIMCQLAVQNSDWIRVDPWECYQDTWQTTCSVLEHHRDLMKRVTGCILSNVNTPSMTPVIGQPQHENTQPIYQNSNVPTKPTAAKILGKVGESLSRICCVRPPVERFTFVDENANLGTVMRYEEIELRILLLCGSDLLESFCIPGLWNEADMEVIVGDFGIVVVPRDAADTDRIMNHSSILRKYKNNIMVVKDDINHPMSVVSSTKSRLALQHGDGHVVDYLSQPVIDYILKSQLYINASG", "notes": "predicted mass 36668 Da"}, "B3": {"name": "mNMNAT3 (Mus musculus) (protein)", "chain": "MKNRIPVVLLACGSFNPITNMHLRLFEVARDHLHQTGRYQVIEGIISPVNDSYGKKDLVASHHRVAMARLALQTSDWIRVDPWESEQAQWMETVKVLRHHHRELLRSSAQMDGPDPSKTPSASAALPELKLLCGADVLKTFQTPNLWKDTHIQEIVEKFGLVCVSRSGHDPERYISDSPILQQFQHNIHLAREPVLNEISATYVRKALGQGQSVKYLLPEAVITYIRDQGLYINDGSWKGKGKTG", "notes": "predicted mass 29866 Da"}}, "key": {"[1]": {"substrate": "NC(=O)c1ccc[n+]([C@@H]2O[C@H](COP(=O)(O)O)[C@@H](O)[C@H]2O)c1", "assay": "C18-HPLC of NAD formed, nonlinear fit", "assay_type": "biochemical, Mus musculus", "conditions": "co-substrate ATP, NMN 5–100 µM, HEPES/KOH pH 7.5, MgCl2, 37°C", "description": "(§1) C18-HPLC of NAD formed, nonlinear fit on mNMNAT1"}, "[2]": {"substrate": "Nc1ncnc2c1ncn2[C@@H]1O[C@H](COP(=O)(O)OP(=O)(O)OP(=O)(O)O)[C@@H](O)[C@H]1O", "assay": "C18-HPLC of NAD formed, nonlinear fit", "assay_type": "biochemical, Mus musculus", "conditions": "co-substrate NMN, ATP 25–175 µM, HEPES/KOH pH 7.5, MgCl2, 37°C", "description": "as §1"}, "[3]": {"substrate": "Nc1ncnc2c1ncn2[C@@H]1O[C@H](COP(=O)(O)OP(=O)(O)OP(=O)(O)O)[C@@H](O)[C@H]1O", "assay": "purified protein", "conditions": "co-substrate NMN, ATP 25–175 µM, HEPES/KOH pH 7.5, MgCl2, 37°C"}, "[4]": {"substrate": "NC(=O)c1ccc[n+]([C@@H]2O[C@H](COP(=O)(O)O)[C@@H](O)[C@H]2O)c1", "assay": "C18-HPLC of NAD formed, nonlinear fit", "assay_type": "biochemical, Mus musculus", "conditions": "co-substrate ATP, NMN 5–100 µM, HEPES/KOH pH 7.5, MgCl2, 37°C", "remark": "listed apart in the source"}, "[5]": {"substrate": "NC(=O)c1ccc[n+]([C@@H]2O[C@H](COP(=O)(O)O)[C@@H](O)[C@H]2O)c1", "assay": "C18-HPLC of NAD formed, nonlinear fit", "assay_type": "biochemical, Mus musculus", "conditions": "co-substrate ATP, NMN 5–100 µM, HEPES/KOH pH 7.5, MgCl2, 37°C", "description": "(§2) C18-HPLC of NAD formed, nonlinear fit on mNMNAT3", "remark": "listed apart in the source"}, "[6]": {"substrate": "Nc1ncnc2c1ncn2[C@@H]1O[C@H](COP(=O)(O)OP(=O)(O)OP(=O)(O)O)[C@@H](O)[C@H]1O", "assay": "C18-HPLC of NAD formed, nonlinear fit", "assay_type": "biochemical, Mus musculus", "conditions": "co-substrate NMN, ATP 25–175 µM, HEPES/KOH pH 7.5, MgCl2, 37°C", "description": "as §2", "remark": "listed apart in the source"}}}
{"protein": "B1", "values": [{"measurement": "Km", "setting": "[1]", "value": "25.2 ± 5.6", "unit": "µM"}, {"measurement": "kcat", "setting": "[1]", "value": "15.5 ± 1.3", "unit": "s⁻¹"}, {"measurement": "kcat/Km", "setting": "[1]", "value": 610000, "unit": "M⁻¹ s⁻¹"}, {"measurement": "Km", "setting": "[2]", "value": "33.5 ± 5.1", "unit": "µM"}, {"measurement": "kcat", "setting": "[2]", "value": "15 ± 0.7", "unit": "s⁻¹"}, {"measurement": "kcat/Km", "setting": "[2]", "value": 450000, "unit": "M⁻¹ s⁻¹"}]}
{"protein": "B2", "values": [{"measurement": "Km", "setting": "[3]", "value": "82.0 ± 15.1", "unit": "µM"}, {"measurement": "kcat", "setting": "[3]", "value": 2.33, "unit": "s⁻¹"}, {"measurement": "kcat/Km", "setting": "[3]", "value": 30000, "unit": "M⁻¹ s⁻¹"}, {"measurement": "Km", "setting": "[4]", "value": "38.5 ± 13.5", "unit": "µM"}, {"measurement": "kcat", "setting": "[4]", "value": "2.87 ± 0.5", "unit": "s⁻¹"}, {"measurement": "kcat/Km", "setting": "[4]", "value": 70000, "unit": "M⁻¹ s⁻¹"}]}
{"protein": "B3", "values": [{"measurement": "Km", "setting": "[5]", "value": "117.6 ± 4.6", "unit": "µM"}, {"measurement": "kcat", "setting": "[5]", "value": "0.75 ± 0.02", "unit": "s⁻¹"}, {"measurement": "kcat/Km", "setting": "[5]", "value": 10000, "unit": "M⁻¹ s⁻¹"}, {"measurement": "Km", "setting": "[6]", "value": "39.0 ± 5.9", "unit": "µM"}, {"measurement": "kcat", "setting": "[6]", "value": "0.74 ± 0.04", "unit": "s⁻¹"}, {"measurement": "kcat/Km", "setting": "[6]", "value": 20000, "unit": "M⁻¹ s⁻¹"}]}
